Format in all cases: cell-based
Assay [1] concerns the target T1, AQ27 (Homo sapiens, UniProt Q96P65).
T1 sequence (Q96P65 1-431): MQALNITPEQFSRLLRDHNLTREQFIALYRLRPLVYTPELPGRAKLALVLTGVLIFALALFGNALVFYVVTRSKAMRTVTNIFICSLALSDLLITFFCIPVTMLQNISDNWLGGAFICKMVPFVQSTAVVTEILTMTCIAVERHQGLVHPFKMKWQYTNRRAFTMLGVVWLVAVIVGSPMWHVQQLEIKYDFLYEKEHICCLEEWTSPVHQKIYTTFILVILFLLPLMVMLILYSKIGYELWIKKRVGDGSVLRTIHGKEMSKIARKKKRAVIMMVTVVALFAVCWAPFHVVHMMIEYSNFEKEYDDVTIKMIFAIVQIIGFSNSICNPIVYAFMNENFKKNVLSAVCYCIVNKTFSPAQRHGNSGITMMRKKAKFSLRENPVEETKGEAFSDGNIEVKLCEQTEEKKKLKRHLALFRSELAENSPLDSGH
Nature of the assay: Intracellular calcium ion release (FLIPR) in AQ27-expressing CHO cells. Further details: expressed in transfected cells; host or cells: CHO cells. The conditions noted are these: for peptide concentration at which intracellular calcium ion mobilizing activity was recognized in CHO-AQ27: AQ27-expressing CHO cells; for activity in promoting intracellular calcium ion release in AQ27-expressing CHO cells: peptide 10 μM and 1 μM compared with absence of the sample, Fluo 3-AM. As for the experimental part:
AQ27-expressing CHO cells established by a method known per se were plated on a 96-well black culture plate (Costar) at a density of 4×10^4 cells/well and cultured overnight. The assay buffer used was a buffer prepared by adding 20 mM HEPES, pH 7.4 (Dojin Kagaku) and 2.5 mM probenecid (Sigma) to a Hanks' balanced salt solution (HBSS). The medium for the cells were removed, and a solution prepared by adding 4 μM Fluo 3-AM (Dojindo) and 0.04% pluronic acid (Molecular Probes) to the assay buffer was added thereto and incubated at 37° C. for 1 hour. The cells were washed with the assay buffer to remove an excess of Fluo 3 and set in FLIPR (Molecular Devices). A sample dissolved in the assay buffer was also set in FLIPR, and the sample was added to the cells by a built-in manipulator, and a change in fluorescence depending on the concentration of intracellular calcium ions generated by irradiation with an excitation light was measured. As a result, the reactions shown in FIGS. 26 and 27 were detected respectively in the presence of novel peptide F: Arg-Lys-Lys-Gly-Gly-Phe-Ser-Phe-Arg-Phe-NH2 (positions 124 to 133 (RKKGGFSFRF—NH2) in SEQ ID NO: 23) and novel polypeptide F: Gly-Gly-Phe-Ser-Phe-Arg-Phe-NH2 (positions 127 to 133 (GGFSFRF—NH2) in SEQ ID NO: 23) in an amount of 10 μM (▴) and 1 μM (□), as compared with the absence of the sample (◯), and the activity of each peptide in promoting intracellular calcium ion release in the AQ27-expressing CHO cells was detected.

Assay [2] has as its system mock CHO cells. Nature of the assay: Intracellular calcium ion change (FLIPR) in mock CHO cells (control). The conditions noted are these: mock CHO cells as the control.
Assay [3] deals with mock CHO cells. As to the kind of experiment: cAMP production-suppressing activity in mock CHO cells (control). The conditions noted are these: mock CHO cells as the control; forskolin. As for the experimental part:
(§1) AQ27-expressing CHO cells (FIG. 24) established by a method known per se and mock CHO cells (FIG. 25) serving as a control were plated on a 96-well plate (Becton Dickinson Company, Ltd.) at a density of 4×10^4 cells/well and cultured overnight. The assay buffer used was a buffer prepared by adding 0.1% bovine serum albumin and 0.2 mM 3-isobutyl-1-methylxanthine to a Hanks' balanced salt solution. The cells were washed twice with the assay buffer and pre-incubated at 37° C. for 30 minutes. The cells were washed again twice with the assay buffer, and a sample prepared in the assay buffer was added thereto, and the cells were incubated at 37° C. for 30 minutes. To evaluate the cAMP production-suppressing activity, a sample composed exclusively of 2 μM forskolin (FSK, Wako Pure Chemical Industries, Ltd.) promoting production of cAMP and a sample containing 2 μM FSK and 10^−7 to 10^−5 M novel polypeptide F: Arg-Lys-Lys-Gly-Gly-Phe-Ser-Phe-Arg-Phe-NH2 (positions 124 to 133 in SEQ ID NO: 23) were compared. A supernatant of the cells was discarded, and the amount of cAMP produced in the cells was measured by cAMP Screen System (Applied Biosystems).

Assay [4] concerns the target T1, AQ27. As to the kind of experiment: CRE-luciferase reporter gene assay in HEK 293 cells transiently expressing AQ27 receptor. Also on record: expressed in transfected cells; host or cells: HEK 293 cells, transient, vector pAKKO-111H, co-transfected with pCRE-Luc. Conditions: pCRE-Luc reporter, peptide 10, 1 and 0.1 μM in Example 9, 4 hours. The text has this: (§2) The specific stimulating activity of novel polypeptides F synthesized in Example 8 on AQ27 receptor (SEQ ID NO: 31) and human OT7T022 receptor (SEQ ID NO: 35) was detected by using, as an indicator, the amount of a reporter gene product (luciferase) produced by induction of expression of a cAMP response element (CRE) promoter.
The HEK 293 cells were suspended in a growth medium (DMEM [Dulbecco's Modified Eagle Medium] (Gibco BRL) containing 10% fetal bovine serum (Gibco BRL)), and plated at a density of 1×10^5 cells/well on a black 96-well plate (Becton Dickinson Company, Ltd.) coated with collagen. After the cells were cultured overnight at 37° C. in 5% CO2, the cells were transfected in the following manner with a reporter gene-containing plasmid pCRE-Luc (Clontech) and simultaneously with an expression vector plasmid prepared by inserting AQ27 gene (SEQ ID NO: 32) and human OT7T022 gene (SEQ ID NO: 36) by a known method into an animal cell expression vector pAKKO-111H (the same plasmid vector as pAKKO-1.11H described in Biochem. Biophys. Acta, Hinuma, S. et al., 1219, 251-259, 1994) or with the intact pAKKO-111H not containing AQ27 gene.
OPTI-MEM-I (Gibco BRL) and Lipofectamine™ 2000 Reagent (Gibco BRL) were mixed in a ratio of 24:1 to prepare a Lipofectamine dilution. Separately, OPTI-MEM-I, AQ27 expression vector plasmid or the intact vector plasmid (240 ng/μl) and pCRE-Luc (240 ng/μl) were mixed in a ratio of 24:0.9:0.1 to prepare a DNA dilution. The Lipofectamine dilution and the DNA dilution were mixed in equal amounts and left for 20 minutes at room temperature, to form a DNA/Lipofectamine complex, and 25 μl of the complex was added to the plate where the HEK 293 cells were cultured, and the cells were further cultured overnight at 37° C. in 5% CO2.
(§3) The HEK 293 cells thus transfected were washed with an assay medium (DMEM containing 0.1% bovine serum albumin), and then each of novel polypeptides F synthesized in Example 8, diluted with the assay buffer, was added at concentrations of 10, 1 and 0.1 μM respectively to the cells which were then cultured at 37° C. in 5% CO2 for 4 hours. The culture supernatant was discarded, and 50 μl Pikka Gene LT2.0 (Toyo Ink Mfg. Co., Ltd.), that is, a substrate for measurement of luciferase activity, was added thereto, and the fluorescence of luciferase was measured with a plate reader (ARVO sx multilabel counter, Wallac).
First, full-length human novel secretory protein F gene (SEQ ID NO: 24) was introduced in a usual manner into an expression vector […]. […] The AQ27-specific activity was detected by using an indicator the amount of the reporter gene product (luciferase) produced by induction with expression of cAMP response element (CRE) promoter.

In assay [5] the target is T1, AQ27. As to the kind of experiment: cAMP production-suppressing activity in AQ27-expressing CHO cells. Further details: expressed in transfected cells; host or cells: CHO cells. The conditions noted are these: 2 μM forskolin; for cAMP production induced by FSK in AQ27-expressing CHO: 30 minutes at 37° C., 10^−7 to 10^−5 M peptide in Example 12. The procedure: as §1
For another assay, the target named is T2, human OT7T022 receptor (Homo sapiens, UniProt Q9GZQ6).
T2 construct: expressed in transfected cells; host or cells: HEK 293 cells, transient, vector pAKKO-111H, co-transfected with pCRE-Luc
Nature of the assay: CRE-luciferase reporter gene assay in HEK 293 cells transiently expressing OT7T022 receptor. The conditions noted are these: HEK 293 cells transiently expressing human OT7T022 receptor; pCRE-Luc reporter; peptide 10, 1 and 0.1 μM in Example 9.
From the text: as §2
The HEK 293 cells were suspended in a growth medium (DMEM [Dulbecco's Modified Eagle Medium] (Gibco BRL) containing 10% fetal bovine serum (Gibco BRL)), and plated at a density of 1×10^5 cells/well on a black 96-well plate (Becton Dickinson Company, Ltd.) coated with collagen. […]
as §3

Consider 5 substances from patent US20040248790A1, “Novel secretory proteins and dna thereof” (priority 2001, published 2004).

Where no end group is shown, it is not given here.

T2 sequence (Q9GZQ6 whole entry): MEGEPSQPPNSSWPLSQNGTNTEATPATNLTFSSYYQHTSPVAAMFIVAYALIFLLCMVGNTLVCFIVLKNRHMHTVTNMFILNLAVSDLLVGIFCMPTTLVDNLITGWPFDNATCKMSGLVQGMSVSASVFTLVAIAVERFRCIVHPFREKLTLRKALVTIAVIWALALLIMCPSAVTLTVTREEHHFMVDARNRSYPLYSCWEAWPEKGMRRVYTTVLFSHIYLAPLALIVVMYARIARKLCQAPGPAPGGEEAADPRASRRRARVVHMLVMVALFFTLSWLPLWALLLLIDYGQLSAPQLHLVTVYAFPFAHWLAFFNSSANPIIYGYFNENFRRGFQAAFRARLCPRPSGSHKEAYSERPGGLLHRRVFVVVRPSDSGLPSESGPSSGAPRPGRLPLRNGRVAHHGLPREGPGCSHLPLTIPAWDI

Take “Ala-Ser-Gln-Pro-Gln-Ala-Leu-Leu-Val-Ile-Ala-Arg-Gly-Leu-Gln-Thr-Ser-Gly-Arg-Glu-His-Ala-Gly-Cys-Arg-Phe-NH2 (ASQPQALLVIARGLQTSGREHAGCRF-NH2) [A1-F28-NH2]”: the “peptide concentration at which intracellular calcium ion mobilizing activity was recognized in CHO-AQ27” value with AQ27 [1] is reported as “at least 10^−6 M”. In the assay on mock CHO cells [2], the “intracellular calcium ion mobilizing activity in mock CHO cells” value is “not recognized”. Also, the “cAMP production-suppressing activity in mock CHO cells” value in the assay with mock CHO cells [3] is “not recognized”. Besides, the “activity of luciferase stimulated by adding forskolin (FSK), AQ27 receptor” value (“activity … AQ27 receptor” below) with AQ27 [4] is reported as “increase in luciferase activity”. Also, in the assay with AQ27 [5] (AQ27-expressing CHO cells), the “peptide concentration at which FSK-induced cAMP production was suppressed in AQ27-expressing CHO” value is “at least 10 M”.
“Arg-Lys-Lys-Gly-Gly-Phe-Ser-Phe-Arg-Phe-NH2 (RKKGGFSFRF-NH2)”: the “activity in promoting intracellular calcium ion release in AQ27-expressing CHO cells” value in the assay with AQ27 [1] was “detected”. In addition, the “activity of luciferase stimulated by adding FSK, human OT7T022 receptor” value in the assay with human OT7T022 receptor is given as “suppressing the luciferase activity”. Besides, the “activity … AQ27 receptor” value with AQ27 [4] is “increasing the luciferase activity”. The “cAMP production induced by FSK in AQ27-expressing CHO” value with AQ27 [5] was “suppressed”.
For “Gly-Gly-Phe-Ser-Phe-Arg-Phe-NH2 (GGFSFRF-NH2)”, the “activity in promoting intracellular calcium ion release in AQ27-expressing CHO cells” value in the assay with AQ27 [1] is given as “detected”.
Consider “Pyr-Asp-Glu-Gly-Ser-Glu-Ala-Thr-Gly-Phe-Leu-Pro-Ala-Ala-Gly-Glu-Lys-Thr-Ser-Gly-Pro-Leu -Gly-Asn-Leu-Ala-Glu-Glu-Leu-Asn-Gly-Tyr-Ser-Arg-Lys-Lys-Gly-Gly-Phe-Ser-Phe Arg-Phe-NH2 (QDEGSEATGFLPAAGEKTSGPLGNLAEELNGYSRKKGGFSFRF; N-terminal pyroglutamate, C-terminal amide; Human) [Pyr1-F43-NH2]”, for which the “peptide concentration at which intracellular calcium ion mobilizing activity was recognized in CHO-AQ27” value with AQ27 [1] is “at least 10^−8 M”. Moreover, the “intracellular calcium ion mobilizing activity in mock CHO cells” value in the assay on mock CHO cells [2] is listed as “not recognized”. The “cAMP production-suppressing activity in mock CHO cells” value in the assay on mock CHO cells [3] is listed as “not recognized”. Moreover, the “activity … AQ27 receptor” value in the assay with AQ27 [4] is “increase in luciferase activity”. Also, the “cAMP production induced by FSK in AQ27-expressing CHO” value with AQ27 [5] is “suppressed”.
As to “Thr-Ser-Gly-Pro-Leu-Gly-Asn-Leu-Ala-Glu-Glu-Leu-Asn-Gly-Tyr-Ser-Arg-Lys-Lys-Gly-Gly-Phe-Ser-Phe Arg-Phe-NH2 (TSGPLGNLAEELNGYSRKKGGFSFRF-NH2) [T1-F26-NH2]”, the “activity … AQ27 receptor” value with AQ27 [4] is reported as “increase in luciferase activity”.
